Laboratory results from the DeepSol protein solubility set.

Test: soluble on expression in E. coli; label from the status in PepcDB or PDB records

Soluble on expression in E. coli, not soluble:
MTEISPKILETSSEPPPKKKRANFTLEFKNEVIRFAEQTNNCQAQKKYGVARACIQRWRHLKHELAFESEGKQGAKRLGGAGRPLKNVELDEKVEDWIASKNGKISGKDIKEYAKKINGNADFKASNGWLQRFMIRHGLIKARSSSPKTPSTSDGTTDKTLEESLFELINSDEWKNISEGNVSGFLEDFNAENGETSLKVEGNNSTTTESEVKQKPNESSKLPEINIFQQLEMLIKDSNGKEDSVEETETSVNRSPKSY
MGSDKIHHHHHHMPVRRIALITNGYPDIYARERSFILPELKALLAYGHQVTLVPVREVTEVDPDLPDGVAVERRLAHLYRPWQLPATVLWMMFRGYFWREAWQCLGRGRLRYLGHFFKESVRATNTLRMQSALRDYDVLYTYWFKGESTGISLMPGTHARRLTRAHGYDLYEDRPNNEGYIPYREMTLPRLDRVVVLSEEARAYLEQRYPASVGRTVVSPLGVAHESDENPGPEADRIVLVSCSYPTPNKRLPLIGQLAAAVACARPSVKVVWMHFGCRREEAGLPVDFAGPPNLSVQFAGEAPNEHIRRWYATRPVSFFVNLSQSEGQPVSIMEAMAFGIPVMATGVGGIPEMLRHGGGMTLPEQPDVNAVAREMLSLLDDPSRYQAMREAARETQLAYFNTSANHRTLADLIGEF
MKTLNLLAPVSQLLKPLRRQSSSRVNALLINVPRVQLSKGKNKYLLMMIHMHGLTRFGRTIVRGSASKDHEEIFEEIQKEMDKIGICAKCLGGGFISNKEDKKVMKIYGCCKTFGEAPHGRTKDILLSWTKFQHYNIILPKKNLNAYQLEHHHHHH
MISILHVAARVLELRPSCDKMKLYKLCYFSQGWHLAWTGRPLFNEELQAWKYGAVSPTLRQASGLRADDDRLVTQIWSGDSSQLIDYERSVVDTVVSFYGDLESFHLSDLSHGFAWSTVRGNLPPDASCSDVIPHSLIRREFVENAWGEAPTPNAPERLPSMALDALEQAADDVAAENAETLRLLAFI
MNTQTGTGTSEVSKKLKAAIRAKLEELGVYVDDELPDYIMVMIANKKEKVQMKDDLNLFIGKSTAKFVDWLFDLFDRLQNASNKQGETSKKEEDKRKELEATAAAKEHEEKRRKEKEEHEKELQKEKEREKERQRERDREKRAEEEKRREEKRKEIQRSKRRRTRSRSNTYSDEEEHVRARGEKHDRHHHKDHRRGRSHERKIITSTIVRQASASPDKKLHSTVTVKRNIRPTGDQNIKGRGTMFLRAMNEASVSAGYGSSSKRSETHHEDDMSDVEALPSKPASTKSPKKSIRDRMSRISKTSEPPIEEDDAVVLEDFAQTGGGPQMILKLSGGREAIKKTRIQDRIVVDDGLRRGLLKRKIETASGASAGAATSEEPKSKHDRIIFDITPSRDSTPTDDSPTMQKWNGQIEIGDDSEESEDDEEAEIDAFVAEARGIARRESFRDEEDELPPTHQLSGGPYAYHHSTAAPTYIPTPLSVLSEQQNQMGGGAAKEDHHVKERCIFWPKCTKGDTCAFMHPTTNCKNFPNCTFGIRCLFIHPPCRFDRFCTKKHCPFTHHGTGGQQPGGAQLTSEFKNPLTSSRMLTVPSPFIAATAAAVEELPKPAARGALGSLAEKLAASIKKKPAPGAESEKKEEKSDENESKAEEPKAEVAPVQPKPLPDIAPLHSMVLCRYAGACRNPICHFKHPKECRFGANCRNPSCYFYHKPAGAAPTPVAAPIAAESAGAAKYKWTSATAN
MGSDKIHHHHHHMTLFLQKGYEETTMREIVHKSGRSKGAIYHHFSSKQEILNFQISLEMDNLRQCLDALISNNQLNAQQKFKGILTYFFENPSLTELTRLHWAEKLPFALLETLKNSLTVVAQYIEAIIQQEIKEKKLNCQYSKELSEILVLLFDIWLDPSIVDFDYQTACQRIDFIALLLEKFDLPLLDENDKNKLKNGLKHYDEKNTL
KERIIGDLSQPVAVRVRTLIQQMTLAEKVAQLVSESDSIPRLNLPAYNYWNECLHGVARAGEVTVFPQAINLASTWDTVLVKRVASAISTEARLKYLEIGKGLTYWSPTINMARDPRWGRNEETYGEDPHLTSRLGVAFVKGLQGDHPTYLKTVATIKHFVANNEENNRFSSSSQIPTKQLYEYYFPAYEACVKEANAQSVMTAYNAFNGVPPSGSHWLLDDVLRKEWGFDGFVVSDCGAIGVMNWQHRVVNSLEEAAALGVNSGCDLECGTTYKEKLVQAVEQGLISEAAIDRALTRVLTARFKLGEFDPMELVPYNHYDKKLLA
MGSDKIHHHHHHAQQTSEVDLIDIAGGMEKLTELKVSDLGKTIRYIPLETTDSCLIGDFPNIKLLDDKIMVYNGKQCLLFDKETGKFICSVGHRGDDPEAYSSTCGYLNPKNQLLYFNRDPNQLVKYNQKGNFAGVITIPSPETSTGNIQINRPGMNGFVFSDSIIIGHYVGGLGQRCPSSVLYFSDKGNYIDTIPNIIPELGTGQVGDINNISVRKGFGLLEGIIQIQYNNGKQSICVPGYTALWKCNDEIRFKELFTDTIYTLKHNQLEKYIIFNTGKYYWPASERTLTDNNSDRIMISYAIENDKLLYFQFIRGLYTDKHILYNGIYDKNTKVTNIALAENNFVDDLTHFMPFTPSFLNEKGECASLVQAADILTWLEEHPEVKIEKELGVLKNLNEESNPVVVLVK
MGHHHHHHSHASELQQHVYDRAHLLSKAEIGKLESLSAKLGAKRDTDFIIITTKSTNGEDIADYTGDFYDRYGKGSTAILTIDMTNREVFIAGFKKAEQYLDNSRLNSIRNTISSDLSNENYFEAFETYIQLSYKDMGIKPGVNPDNI
MGSDKIHHHHHHMATIDLIVLGIVKQQPKSAYDIQKAVEYRNISRWVKISTPSIYKKVIQLEQKGYIESKTVKNGKMPEKAVYSLTELGETHFLDLMFDTSSKPINILLDFNAVIVNLNSLTPEKQKLCLNNIEENVQELKKTIEENISIKTEVPETAKAVLEQQLVLAQALETWINSLKDNTGN

Soluble on expression in E. coli, soluble:
MVSGGTFNAGVEKIRPGIYTNFKAAAAERTKAGERGTVALPLAASWGAAKEFVEINKEEDVEKKLGLSLAHQSFLLLRETLKLAKTVLVYRLNDGIKATATLATDVVVTAKYGGIVGNSITIKVDENVVDSSKKDVTTYLNEVAVDKQVVGTASELIDSNYVSFKTTSTSELQQSSGTTLVGGTDQPVTNLDYTQFLVSAEGEYFDTIAFPVSSSDVALKTSFVSFVKRMRDEQGVKIKGVVANMPADYEGIINVRNGVTLRDGTILEPHQVVAWVAGADASASMLKSNTFVKYDGAIDATPRLANDEAEEALQNGEFVLTFDARDKAVYVEQDLNSLTTFSKEKSSKFRKNKISRILDGINNDTRRNILDAIKERKDANTDIPADENGVQFILSMQTAYLNELQDSGAITNFDSTADITVSLNNNVDGFIVNQSIEPVDSGEKFYFTTEVKLEHHHHHH
MLKKHLTTQLFQKKKKKKLHLVLDLDHTLLHSVLVSDLSKREKYLLEETDSRQDLWRRNVDGYEFIIKLRPFLHEFLLEANKLFTMHVYTMGSSSYAKQVLKLIDPDKVYFGKRVITREASPFNKSLDLLAADKRRVVIVDDTVHVWPFHKRNLLQITKYVYFKVDGTKWDSYAEAKKDESQSNGSLANVLKFLEDVHKRFEEDLGFKDLRLLIPCRQCCY
MVQQSEVRQMKHSVSTLNQEMTQLNQETVKITQQNRLNAKSSSGVYLLPGAKTPARLESQIGTLRMSLVNITPDADGTTLTLRIQGESNDPLPAFSGTVEYGQIQGTIDNFQEINVQNQLINAPASVLAPSDVDIPLQLKGISVDQLGFVRIHDIQPVMQLEHHHHHH
MAHHHHHHMPKSSPPDEHKVLIKKLTHACASYDSASRKYLTAVKALDSSLEAVAIAIRELSQGEESEDAVTRVDRFCTSVDRHMAGSSAGASFGHNKSGRLSDSAAFNGAEYPFAAYMSDFTREVSSAVDELKEILKKIEKSRSKHDDLVAKYNKKRSEVDTMEMKLAKKNQGIATNEKYSHKLSDRDALKVQVDTGERELRAEFMELLQRRTRILLQVVHGMQTHSSKYYSHLSKAMQA
SLDAEKQLANITMGLPLSPAADSARSARHALSLIATARPPAFITTIAKEVHRHTALAANTQSQQSIHTTTLARAKGEILRVIEILIEKMPTDVVDLLVEVMDIIMYCLEGSLVKKKGLQECFPAICRFYMVSYYERSHRIAVGARHGSVALYDIRTGKCQTIHGHKGPITAVSFAPDGRYLATYSNTDSHISFWQMNTSLLGSIGMLNSAPQLRCIKTYQVPPVQPASPGSHNALKLARLIWTSNRNVILMAHDGKEHRFMV
MSLNILILHRVRYVDVLYHQSIDHELHNVYYIGIEENLNEIPADLRCTKIVRPGVDAVHKEVLEQIENLDVCFDHVVSINEFELIEAALIREKLNIAGPKVADVEKVRNKIVMKHCVGAVNIRIPQYMSLSDFMNSERLAIPPSSQVILKPLDGASSVDVVKFDSQKVLEQALIDRTTGIVALDKETPERIENFEVEEFVSGPVLHIDGMIRNGQIEMIVVSQYINTLLDFANGYPAGSVQLETTEEMKTWALQILNAVDISLGAFHLEAIQTDTGPVFLEIAHRIGGARIAETLTLQTGIHPSILELGLLLDPDFKFELNYDTGYKYAWFIVPGHQLPGNYGLVSGHEFLYGKEEVVMLNQLTMQQPLVKAVTYKESEIPLAGLLKAKSAKELTDLIDRLFGQLQLISVDTPLPYSECMPQKKKHVLVIGNIRQPHKTLEAQGYAISWMYKKVPNFTHTTEDHNRCERILMYSNESAIQLISLARSIDQLQKIDSVVSFHDGAQLDALTIANALELPFSLSMGAIVNTRDKQLSRRILREKNLTEVQSAIAENEQDLHDFFKIYPQVNKVIVKPVAGTGSENVRSLESKELETANLDNVYPVLVEQFVEGREFSVEAFMQEGKCHIFAITEKFKDAQSFIETGHLVPARLSSDEHEKIAAFIAKVLPALGVVSGITHSEIMLGEKIELIETHTRVGGDRIFDLVQMTTGIDMYRLQALQSLGLPIGEDELTPKLNGKHACIKFKLNDHPGKKVIRVNGEEEIKNWSGVEDVSITHQAGEVLPQIVNSFDRSASVLVLCDSSEQALSIAEEAIQKLEFVVGEGHHHHHH
MKFGWVNVIGDNWEEKKKIVTTALESSIPVVVAEPEDIEKIKELGNIKVASHSLDADIVLVNKNDNIEFLKEAKNLGKETAIYIPIESKEDEEFASEVARFGFVDNIILEGRDWTIIPLENLIADLFHRDVKIVASVNSVDEAKVAYEILEKGTDGVLLNPKNLEDIKELSKLIEEMNKEKVALDVATVTKVEPIGSGDRVCIDTCSLMKIGEGMLIGSYSRALFLVHSETVENPYVATRPFRVNAGPVHAYILCPGNKTKYLSELKAGDKVLIVDKDGNTREAIVGRVKIERRPLVLIEAEYKGDIIRTILQNAETIRLVNEKGEPISVVDLKPGDKVLIKPEEYARHFGMAIKETIIEKLEHHHHHH
MSLRITRIRLYKTDLPYVDGSYGWGAGNAITVARASVVVIDTDAGLQGCGEFTPCGENYMIAHSEGVDAFARLAAPQLLGQDPRQVARMERLMDHLVQGHGYAKAPFDAAFWDILGQATGQPVWMLLGGKLCDGAPMYRVAPQRSEAETRAELARHRAAGYRQFQIKVGADWQSDIDRIRACLPLLEPGEKAMADANQGWRVDNAIRLARATRDLDYILEQPCRSYEECQQVRRVADQPMKLDECVTGLHMAQRIVADRGAEICCLKISNLGGLSKARRTRDFLIDNRMPVVAEDSWGGEIASAAVAHFAASTPEEFLINSTDLMNYNTRSTGLGGPTVHQGRLYASDTPGLGVTPDFNSLGAPVADWALPEGHHHHHH
GMEFLMKISHLDHLVLTVADIPTTTKFYEKVLGMKAVSFGSGRIALEFGHQKINLHQLGHEFEPKAQNVRTGSADLCFITDIDLSDAMEYVENQGVVIMEGPVKRTGAQGAITSFYFRDPDGNLIEVSTYSNT
